Values of other authors as cited in publication PMC3518592.

Molecular target: ubiquitin (UniProt P0CG48)

Sequence of Vps9 CUE (P54787 405-451): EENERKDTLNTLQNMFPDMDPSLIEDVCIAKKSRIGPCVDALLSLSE

Vps9 CUE (from UniProt P54787)
Kd: 20 µM
